Experimental findings from patent publication US20120207760A1 (THERACLONE SCIENCES, published 2012) are described below.

The labels stand for the following.
B1: TCN-032 Fab fragment (Fab, V domains shown)
VH: QVQLQESGPGLVKPSETLSLTCTVSGSSISNYYWSWIRQSPGKGLEWIGFIYYGGNTKYNPSLKSRVTISQDTSKSQVSLTMSSVTAAESAVYFCARASCSGGYCILDYWGQGTLVTVS
VL: DIQMTQSPSSLSASVGDRVTITCRASQNIYKYLNWYQQRPGKAPKGLISAASGLQSGVPSRFSGSGSGTDFTLTITSLQPEDFATYYCQQSYSPPLTFGGGTRVEIK
B2: TCN-031 Fab fragment (Fab, V domains shown)
VH: EVQLVESGGGLVQPGGSLRISCAASGFTVSSNYMSWVRQAPGKGLEWVSVIYSGGSTYYADSVKGRFSFSRDNSKNTVFLQMNSLRAEDTAVYYCARCLSRMRGYGLDVWGQGTTVTVS
VL: DIQMTQSPSSLSASVGDRVTITCRTSQSISSYLNWYQQKPGKAPKLLIYAASSLQSGVPSRFSGSGSGTDFTLTISGLQPEDFATYYCQQSYSMPAFGQGTKLEIK
B3: TCN-560 (5084_P10) (antibody, V domains shown)
VH: EVQLVESGGGLVQPGGSLRLSCAASGFIFRNYWMSWVRQAPGKGLEWVANIKQDGREKYYVDSLRGRVNISRDNAENSLYLHMNSLRVEDTAVYFCARARMVVVTGDGFDVWGHGTMVTVSS
VL: DIQMTQSPSSLSASVGDRVTITCRASQNIKRYFNWYQQKPGKAPKLLIYAASNLENGVPSRFSGSGSGTDFTLTISSLQPEDFATYYCQQSFSKSWTFGQGTNVDIK
B4: TCN-548 (5092_P01) (antibody, V domains shown)
VH: QVQLQESGPGLVKPSETLSLTCTVSSGPMSDYYWSWIRQPPGKGLEWIGHVSVSHGGRTKSNPSVMSRVTISVETSKNQFSLKLTSVTAADTAVYYCARLNYYDRSGYHSPDGPSNNWFDPWGQGTLVTVSS
VL: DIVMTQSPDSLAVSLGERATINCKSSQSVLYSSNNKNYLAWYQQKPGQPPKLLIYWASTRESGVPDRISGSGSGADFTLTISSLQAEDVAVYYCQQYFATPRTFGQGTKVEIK
B5: TCN-549 (5092_P04) (antibody, V domains shown)
VH: QVQLVQSGAEVKKPGASVKVSCKASGYTFTGYYMHWVRQAPGQGLEWMGWINPNSGDTNYAQKFQGRVTMTRDTSITTAYMELSSLRSDDTAVYYCARDSPYSSSWSFFDYWGQGPLVTVSS
VL: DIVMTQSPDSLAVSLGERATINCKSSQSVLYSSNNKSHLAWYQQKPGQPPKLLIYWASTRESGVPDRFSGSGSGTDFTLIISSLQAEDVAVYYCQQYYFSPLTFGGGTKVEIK
B6: TCN-556 (5089_K12) (antibody, V domains shown)
VH: QVQLVQSGAEVKKPGASVKVSCKASGYTFIGYDMHWVRQAPGQGLEWMGWINAKRGGTNYAQKFQGRVTMTRDTSISTAYMELNSLRSDDTAVYYCARGVGSRTTIFGVLNPEFDYWGQGTLVTVSS
VL: QSALTQPPSASGSPGQSVTISCTGSSSDVGGYDYVSWYQQHPGKAPKLLIYEVTKRPSGVPDRFSGSKSGNTASLTVSGLQAEDEADYYCSSYAGNYNHVFGPGTKVTVL
B7: TCN-552 (5249_I23) (antibody, V domains shown)
VH: QVQVVQSGAEVKKPGSSVRVSCQASGGTFMNYAIIWVRRAPGQGLEWMGGIIPVFPTPNYAQMFQGRVTISTDESRSTSFLELTNLRYEDTAVYYCARRIYHGGNSGFDFWGQGTLVTVSS
VL: EIVLTQSPATLSLSPGERATLSCRASQSVGNYLAWYQQKPGQAPRLLIYDSSNRAPGIPARFSGSGSGTDFTLTISSLAPEDFAVYYCQQRSKWPPMYSFGHGTKLEIK
B8: TCN-553 (5261_C18) (antibody, V domains shown)
VH: QVQVVQSGTEVKKPGSSVKVSCQTSGGRFMSYAITWVRQAPGQGLEWMGGIVPVFGTANYAQKFQGRVTITTDDSTRTAYMELSSLRSEDTAVYYCGFRYGSGYGFDSWGQGTLVTVSS
VL: EIVLTQSPGTLSLSPGERATLSCRASQSVSSSYLAWYQKKPGQAPRLLIYGASTRATGIPDRFTGSGSGTDFTLSISRLEPEDFAVYYCQHFGTSVFTFGGGTKVEIK
B9: TCN-555 (5246_L16) (antibody, V domains shown)
VH: QVQLVQSGAEVKRPGSSVKVSCTASGGIFRKNAISWVRQAPGQGLEWMGGIIAVFNTANYAQKFQNRVKITADESGNTAYMELSSLTSDDTAVYYCASHPKYFYGSGSYPDFWGQGTLVTVSS
VL: QSALTQPRSVSGSPGQSITISCTGGSSDIGASNSVSWYQQHPGKAPKLVIFDVTERPSGVPHRFSGSKSGNTASLTVSGLQPDDEADYFCCAYGGKYLVVFGGGTKVTVL
B10: TCN-550 (5096_F06) (antibody, V domains shown)
VH: QVQLQESGPGLVKPSETLSLTCTVSGASINSHYWSWIRQPPGKGLEWIGYVYYSGSTTYNPSLKSRVTLSVDTSKNQFSLNLSSVTAADTAFYYCARHPYDVLTGSGDWFDPWGQGTLVTVSS
VL: SYVLTQAPSVSVAPGQTARITCGGNAIGSKKVHWYQHKAGQAPVLVVYDDTDRPSGIPERFSGSNSWSTATLTINRVEAGDEADYYCQVWDFTIDHVVFGGGTKLTVL
B11: TCN-557 (5081_A04) (antibody, V domains shown)
VH: QVQLVQSGAEVKKPGASVKVSCKASGHTFTGYYIHWVRQAPGQGLEWMGWINPDSGATSSAQNFQGRVTMTGDTSSSTAYMELSRLSFDDTAVYYCARVLFTSPFDFWGEGTLVTVSS
VL: QAVVTQEPSLAVSPGGTVTLTCGSSTGAVTRGHYPYWFQQKPGQAPRALIYDSAGNRHSWTPARFSGSLLGGKAALTLSGAQPEDEAEYYCLLSYSGVWVFGGGTKLTVL

Sequence of M2 protein of influenza A/Puerto Rico/8/34 (H1N1), on inactivated virus (P06821 whole entry, the tested form may be a part): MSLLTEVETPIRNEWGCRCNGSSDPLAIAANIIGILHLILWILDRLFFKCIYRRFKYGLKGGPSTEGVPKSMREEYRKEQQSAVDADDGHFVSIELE

The first test concerns the target M2 protein of influenza A/Puerto Rico/8/34 (H1N1), on inactivated virus (Influenza A virus A/Puerto Rico/8/34 …, UniProt P06821 1-97). In words: surface plasmon resonance, Fab fragment on influenza virus. A general note: SPR reads the build-up and loss of mass on a sensor chip optically.
The molecule B1 returned an equilibrium dissociation constant (Kd) of 3.2 nM, a koff of 0.0023 s⁻¹ and a kon of 740000 M⁻¹ s⁻¹.
For B2 the same measures were 14 nM, 0.014 s⁻¹ and 1e+06 M⁻¹ s⁻¹.

The target in the next test is Hemagglutinin of influenza A/Japan/305/57 (H2N2), on inactivated whole virions (Influenza A virus A/Japan/305/1957 …, UniProt P03451 16-562). Put plainly: ELISA, B cell culture supernatant on inactivated whole virions. (In general: In an ELISA, binding on a coated surface is turned into a signal by an enzyme label.)
In the case of B3, the OD450 was 2.07 OD450.
The molecule B4 gave an OD450 of 0.09 OD450.
B5 displayed an OD450 of 0.08 OD450.
On to B6, for which the OD450 was 2.41 OD450.
B7 came in with an OD450 of 0.71 OD450.
The same measure, in the same setting: next, B8: 2.54 OD450; B9: 0.6 OD450; B10: 0.06 OD450.
The molecule B11 had an OD450 of 2.7 OD450.

What is called Kd is the constant that tells how readily two partners part at equilibrium. In general, koff refers to the rate constant with which the complex falls apart. Higher therefore signals fast dissociation. As a reminder, the kon is the rate constant with which the complex forms.
